{"source": "paper PMC6644155", "binders": {"B1": {"name": "rs717-G (dsDNA)", "DNA 1": "CCCGGTCAGGACCACGGTGACCATGAGGGCG", "DNA 2": "CGCCCTCATGGTCACCGTGGTCCTGACCGGG"}}, "target": "T1, Thyroid hormone receptor beta (THRβ), recombinant (Homo sapiens, UniProt P10828 1-461)", "T1 sequence": "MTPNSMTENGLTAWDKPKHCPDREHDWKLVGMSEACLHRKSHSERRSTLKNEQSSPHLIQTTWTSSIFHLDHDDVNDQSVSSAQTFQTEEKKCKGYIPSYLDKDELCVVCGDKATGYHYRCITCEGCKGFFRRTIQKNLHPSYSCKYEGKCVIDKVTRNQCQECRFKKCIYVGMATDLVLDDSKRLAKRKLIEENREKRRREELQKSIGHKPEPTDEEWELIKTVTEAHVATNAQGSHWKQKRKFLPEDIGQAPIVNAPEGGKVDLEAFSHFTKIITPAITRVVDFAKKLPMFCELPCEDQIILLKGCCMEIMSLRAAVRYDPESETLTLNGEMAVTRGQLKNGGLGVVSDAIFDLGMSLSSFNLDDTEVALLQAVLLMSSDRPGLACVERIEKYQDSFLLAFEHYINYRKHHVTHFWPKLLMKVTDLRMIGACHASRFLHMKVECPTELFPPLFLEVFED", "assay": "EMSA", "data": [{"binder": "B1", "values": [{"measurement": "binding result", "value": "binds"}]}]}
